Source: PMC7719794

Target: chicken CD8αα homodimer (chicken)
Assay: crystal structure; sitting-drop vapour diffusion at 291 K, 10 mg/ml; cCD8αα and pMHC-I mixed at a 2:1 molar ratio at 277 K overnight; three crystals: pBF2*1501, cCD8αα/pBF2*1501, cCD8αα/pBF2*0401; two complexes (A and B) in the asymmetric unit of each co-crystal

- stoichiometry N: 2
Substance: chicken CD8αα homodimer (receptor)
